In paper PMC6016464, “Folding and binding pathways of BH3-only proteins are encoded within their intrinsically disordered sequence, not templated by partner proteins” (The Journal of Biological Chemistry, 2018) one finds kon, Kd and koff data, which are given here for 25 molecules.

In experiment [1] the target is T1, A1 protein (mouse, residues 1-152, P104K C113S, used as wild type) (mouse).
T1 sequence (Q07440 1-152 with P104K C113S, looked up): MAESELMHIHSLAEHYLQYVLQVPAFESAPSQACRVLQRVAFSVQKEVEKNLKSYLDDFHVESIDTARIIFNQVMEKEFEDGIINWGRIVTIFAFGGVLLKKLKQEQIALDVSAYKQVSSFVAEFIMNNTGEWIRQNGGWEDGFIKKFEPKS
Kind of experiment: stopped-flow fluorescence kinetics; association; TAMRA-labelled peptide with folded partner at least 10-fold higher (pseudo-first-order); kon from the gradient of kobs versus partner concentration; 25 °C; 50 mM sodium phosphate, 0.05% (v/v) Tween 20, pH 7.0.

The target is the same in experiment [2]. The experiment in a line: stopped-flow fluorescence kinetics + other: fluorescence dissociation kinetics with competitor; Kd calculated as the ratio koff/kon of the kinetic rate constants; 25 °C; 50 mM sodium phosphate, 0.05% (v/v) Tween 20, pH 7.0.
Experiment [3] shares this target. Kind of experiment: fluorescence dissociation kinetics with competitor; dissociation; preformed complex of TAMRA-labelled peptide and partner protein mixed with excess unlabeled PUMA peptide as competitor; stopped-flow or Cary Eclipse spectrophotometer; 25 °C; 50 mM sodium phosphate, 0.05% (v/v) Tween 20, pH ….
Experiment [4] has as its target T2, MCL-1 (mouse, residues 152-308) (mouse).
T2 construct: remnant of thrombin cleavage at the N-terminus of MCL-1; MCL-1, mouse, residues 152-308, UniProt P97287; source: E. coli C41 pLysS, purified (Ni2+ agarose, thrombin cleavage, ion exchange, Superdex G75 gel filtration); not shown: His6, N-terminal, cleaved
T2 chain: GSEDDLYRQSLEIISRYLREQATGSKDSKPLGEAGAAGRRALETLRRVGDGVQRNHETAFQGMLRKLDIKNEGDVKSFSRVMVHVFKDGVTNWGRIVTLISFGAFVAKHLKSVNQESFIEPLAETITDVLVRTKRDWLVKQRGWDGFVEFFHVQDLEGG
Kind of experiment: fluorescence dissociation kinetics with competitor; dissociation; preformed complex of TAMRA-labelled peptide and partner protein mixed with excess unlabeled PUMA peptide as competitor; stopped-flow or Cary Eclipse spectrophotometer; 25 °C; 50 mM sodium phosphate, 0.05% (v/v) Tween 20, pH 7.0. The conditions noted are these: both partners purified. In short, it runs like this:
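The dissociation rate constant (koff) was found by displacing TAMRA-labelled peptide from its preformed complex with mouse MCL-1 (residues 152–308) using a range of unlabelled competitor peptide concentrations. Experiments were run at 25 °C in 50 mM sodium phosphate, 0.05% (v/v) Tween 20, pH 7.0, on a stopped-flow instrument when kobs was above 0.03 s^−1 and on a Cary Eclipse when kobs was below 0.03 s^−1. Each fluorescence trace was fit to a single exponential, and once competitor was in sufficient excess, the kobs values that no longer depended on concentration were averaged to give koff.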

In experiment [5] the target is T2, MCL-1 (mouse, residues 152-308). Kind of experiment: stopped-flow fluorescence kinetics; association; TAMRA-labelled peptide with folded partner at least 10-fold higher (pseudo-first-order); kon from the gradient of kobs versus partner concentration; 25 °C; 50 mM sodium phosphate, 0.05% (v/v) Tween 20, pH 7.0. The settings on record: both partners purified. In short, it runs like this: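 The association rate constant is the slope of observed rate versus partner concentration, from stopped-flow fluorescence of TAMRA-labelled peptide with mouse MCL-1 (residues 152–308). The partner was in at least 10-fold excess, in 50 mM sodium phosphate, 0.05% (v/v) Tween 20, pH 7.0, at 25 °C. Excitation was at 555 nm with emission above 570 nm, and each observed rate came from a single-exponential fit.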

For experiment [6] the target is unchanged. Kind of experiment: stopped-flow fluorescence kinetics + other: fluorescence dissociation kinetics with competitor; Kd calculated as the ratio koff/kon of the kinetic rate constants; 25 °C; 50 mM sodium phosphate, 0.05% (v/v) Tween 20, pH 7.0. The settings on record: both partners purified.

Where no end group is shown, it is not given here. The star is where a group is joined. TAMRA = 5-carboxytetramethylrhodamine, CN(C)c1ccc2c(-c3ccc(C(=O)*)cc3C(=O)[O-])c3ccc(=[N+](C)C)cc-3oc2c1

Take {TAMRA}-RVEEEEWAREIGAQLRRAADDLNGQYERRRQEEQH [PUMA A150G peptide (on the M144A wild type), TAMRA-labelled]: the on-rate (kon) in experiment [1] came to 4.84e+06 M⁻¹ s⁻¹. Also, the Kd in experiment [2] was 0.444 nM. The koff in experiment [3] worked out at 0.00215 s⁻¹.
On to {TAMRA}-RVEEEEWAREIGAQLRRAADDLNAQYEGRRQEEQH [PUMA R154G peptide (on the M144A wild type), TAMRA-labelled], for which the association rate constant (kon) in experiment [1] came to 4.79e+06 M⁻¹ s⁻¹. Also, in experiment [2], the dissociation constant Kd is 0.092 nM. For the same molecule, the off-rate constant (koff) in experiment [3] was determined as 0.00044 s⁻¹.
The matching figures for {TAMRA}-RVEEEEWAREIGAQLRRAADALNAQYERRRQEEQH [PUMA D147A peptide (on the M144A wild type), TAMRA-labelled]: 9.4e+06 M⁻¹ s⁻¹, 0.051 nM and 0.00048 s⁻¹.
In turn, {TAMRA}-RVEEEGWAREIGAQLRRAADDLNAQYERRRQEEQH [PUMA E132G peptide (on the M144A wild type), TAMRA-labelled] registered a kon in experiment [1] of 8.4e+06 M⁻¹ s⁻¹. In experiment [2], the Kd was 0.102 nM. In experiment [3], this molecule returned an off-rate constant (koff) of 0.00086 s⁻¹.
In turn, {TAMRA}-RVEEEEWAREIGGQLRRAADDLNAQYERRRQEEQH [PUMA A139G peptide (on the M144A wild type), TAMRA-labelled] showed an on-rate (kon) in experiment [1] of 3.26e+06 M⁻¹ s⁻¹. The dissociation constant (Kd) in experiment [2] was 0.33 nM. Further, the koff in experiment [3] is 0.00108 s⁻¹.
The matching figures for {TAMRA}-RVEEEEWAREIGAQLRRAADGLNAQYERRRQEEQH [PUMA D147G peptide (on the M144A wild type), TAMRA-labelled]: 6.76e+06 M⁻¹ s⁻¹, 0.288 nM and 0.00195 s⁻¹.
For {TAMRA}-RVEEEEWAREIGAQLRRAADDLNAQYERRRQEEQH [PUMA peptide (mouse, residues 127-161, M144A, used as wild type), TAMRA-labelled] the same measures were 5.9e+06 M⁻¹ s⁻¹, 0.085 nM and 0.0005 s⁻¹.

B1: BID peptide (mouse, residues 76-110), TAMRA-labelled (peptide)
chain: {TAMRA}-SESQEEIIHNIARHLAQIGDEMDHNIQPTLVRQLA
notes: BID, mouse, residues 76-110, UniProt P70444; also called WT; source: synthetic peptide (Biomatik)
As to B1, the kon in experiment [1] amounted to 8.2e+06 M⁻¹ s⁻¹; in experiment [5], 8.9e+06 M⁻¹ s⁻¹. The koff in experiment [4] was determined as 0.003 s⁻¹; in experiment [3], 0.000155 s⁻¹. Also, the dissociation constant Kd was 0.019 nM in experiment [2] and 0.33 nM in experiment [6].

B2: BID H99A peptide, TAMRA-labelled (peptide, UniProt P70444 76-110, looked up)
chain: {TAMRA}-SESQEEIIHNIARHLAQIGDEMDANIQPTLVRQLA
notes: BID, mouse, residues 76-110, UniProt P70444; source: synthetic peptide (Biomatik)
B2 had a koff in experiment [4] of 0.001 s⁻¹. Also, the association rate constant (kon) in experiment [5] amounted to 9.2e+06 M⁻¹ s⁻¹. Besides, the dissociation constant (Kd) in experiment [6] was 0.12 nM.

B3: BID I82A peptide, TAMRA-labelled (peptide, UniProt P70444 76-110, looked up)
chain: {TAMRA}-SESQEEAIHNIARHLAQIGDEMDHNIQPTLVRQLA
notes: as for B2
Consider B3, for which the koff in experiment [4] is 0.0062 s⁻¹. This molecule also gave an on-rate (kon) in experiment [5] of 9.5e+06 M⁻¹ s⁻¹. Moreover, the Kd in experiment [6] is 0.65 nM.

B4: BID I86A-M97A peptide, TAMRA-labelled (peptide, UniProt P70444 76-110, looked up)
chain: {TAMRA}-SESQEEIIHNAARHLAQIGDEADHNIQPTLVRQLA
notes: as for B2
Take B4: the kon in experiment [1] stood at 2.2e+06 M⁻¹ s⁻¹; in experiment [5] it was 3.5e+06 M⁻¹ s⁻¹. Moreover, the figures for the off-rate constant (koff) in experiment [4] and in experiment [3] were 1.36 s⁻¹ and 0.11 s⁻¹, respectively. Moreover, the results for the Kd in experiment [2] and in experiment [6] were 50 nM and 390 nM, respectively.

B5: BID H99G peptide, TAMRA-labelled (peptide, UniProt P70444 76-110, looked up)
chain: {TAMRA}-SESQEEIIHNIARHLAQIGDEMDGNIQPTLVRQLA
notes: as for B2
In turn, B5 yielded a koff in experiment [4] of 0.004 s⁻¹. The molecule further returned an association rate constant (kon) in experiment [5] of 9e+06 M⁻¹ s⁻¹. Moreover, the Kd in experiment [6] is 0.4 nM.

B6: BID E96A peptide, TAMRA-labelled (peptide, UniProt P70444 76-110, looked up)
chain: {TAMRA}-SESQEEIIHNIARHLAQIGDAMDHNIQPTLVRQLA
notes: as for B2
Consider B6, for which the kon was determined as 1e+07 M⁻¹ s⁻¹ in experiment [1] and 9.9e+06 M⁻¹ s⁻¹ in experiment [5]. Also, the off-rate (koff) in experiment [4] was 0.0038 s⁻¹; in experiment [3], 0.000146 s⁻¹. In addition, the Kd in experiment [2] was 0.015 nM; in experiment [6], 0.38 nM.

B7: BID I86A peptide, TAMRA-labelled (peptide, UniProt P70444 76-110, looked up)
chain: {TAMRA}-SESQEEIIHNAARHLAQIGDEMDHNIQPTLVRQLA
notes: as for B2
As for B7, the kon came to 2.9e+06 M⁻¹ s⁻¹ in experiment [1] and 4e+06 M⁻¹ s⁻¹ in experiment [5]. In addition, the off-rate constant (koff) was determined as 0.14 s⁻¹ in experiment [4] and 0.022 s⁻¹ in experiment [3]. Further, the equilibrium dissociation constant (Kd) in experiment [2] is 7.6 nM; in experiment [6], 35 nM.

B8: BID I93A peptide, TAMRA-labelled (peptide, UniProt P70444 76-110, looked up)
chain: {TAMRA}-SESQEEIIHNIARHLAQAGDEMDHNIQPTLVRQLA
notes: as for B2
For the molecule B8, the kon was 5.6e+06 M⁻¹ s⁻¹ in experiment [1] and 4.5e+06 M⁻¹ s⁻¹ in experiment [5]. Further, the values for the off-rate constant (koff) in experiment [4] and in experiment [3] were 0.43 s⁻¹ and 0.0025 s⁻¹, respectively. The Kd in experiment [2] is 0.44 nM; in experiment [6], 96 nM.

B9: BID E96G peptide, TAMRA-labelled (peptide, UniProt P70444 76-110, looked up)
chain: {TAMRA}-SESQEEIIHNIARHLAQIGDGMDHNIQPTLVRQLA
notes: as for B2
On to B9, for which the kon was found to be 7.8e+06 M⁻¹ s⁻¹ in experiment [1] and 1.09e+07 M⁻¹ s⁻¹ in experiment [5]. Besides, the figures for the koff in experiment [4] and in experiment [3] were 0.01 s⁻¹ and 0.00077 s⁻¹, respectively. The Kd in experiment [2] was 0.098 nM; in experiment [6] it was 0.9 nM.
As for {TAMRA}-RVEEEEWAREIGAQLRRAADDLNAQYEARRQEEQH [PUMA R154A peptide (on the M144A wild type), TAMRA-labelled], in experiment [1], the association rate constant (kon) was determined as 4.86e+06 M⁻¹ s⁻¹. The Kd in experiment [2] was 0.111 nM. Moreover, in experiment [3], the dissociation rate constant (koff) is 0.00054 s⁻¹.
{TAMRA}-RVEEEEWAREIGAQLRRAADDLNAQAERRRQEEQH [PUMA Y152A peptide (on the M144A wild type), TAMRA-labelled]: the kon in experiment [1] amounted to 5.1e+06 M⁻¹ s⁻¹. Further, the Kd in experiment [2] is 0.49 nM. This molecule yielded a koff in experiment [3] of 0.00251 s⁻¹.
For {TAMRA}-RVEEEAWAREIGAQLRRAADDLNAQYERRRQEEQH [PUMA E132A peptide (on the M144A wild type), TAMRA-labelled] the same measures were 8.8e+06 M⁻¹ s⁻¹, 0.088 nM and 0.00077 s⁻¹.
For {TAMRA}-RVEEEEWARAIGAQLRRAADDLNAQYERRRQEEQH [PUMA E136A peptide (on the M144A wild type), TAMRA-labelled] the same measures were 1.04e+07 M⁻¹ s⁻¹, 0.046 nM and 0.00048 s⁻¹.
As to {TAMRA}-RVEEEEFAREIGAQLRRAADDLNAQYERRRQEEQH [PUMA W133F peptide (on the M144A wild type), TAMRA-labelled], the association rate constant (kon) in experiment [1] is 4.27e+06 M⁻¹ s⁻¹. In experiment [2], the Kd is 0.475 nM. The koff in experiment [3] came to 0.00203 s⁻¹.
For {TAMRA}-RVEEEEWAREIGAQLRGAADDLNAQYERRRQEEQH [PUMA R143G peptide (on the M144A wild type), TAMRA-labelled] the same measures were 3.03e+06 M⁻¹ s⁻¹, 1.72 nM and 0.0052 s⁻¹.
The matching figures for {TAMRA}-RVEEEEWARGIGAQLRRAADDLNAQYERRRQEEQH [PUMA E136G peptide (on the M144A wild type), TAMRA-labelled]: 8.2e+06 M⁻¹ s⁻¹, 0.29 nM and 0.00238 s⁻¹.
For {TAMRA}-RVEEEEWAREAGAQLRRAADDLNAQYERRRQEEQH [PUMA I137A peptide (on the M144A wild type), TAMRA-labelled] the same measures were 1.64e+06 M⁻¹ s⁻¹, 3.7 nM and 0.006 s⁻¹.
Molecule {TAMRA}-RVEEEEWAREIGAQLRAAADDLNAQYERRRQEEQH [PUMA R143A peptide (on the M144A wild type), TAMRA-labelled] came in with a kon in experiment [1] of 3.67e+06 M⁻¹ s⁻¹. In experiment [2], the Kd was 0.24 nM. The koff in experiment [3] was 0.00088 s⁻¹.
